Data: patent publication US10363306B2, “Cytokines and neuroantigens for treatment of immune disorders” (East Carolina University, priority 2009, dated 2019)

How the values were obtained:
EAE in Lewis rats = experiment: Treatment of ongoing EAE after disease onset; assay type: in vivo
[1] = tested on: MBP-specific RsL.11 T cell clone; experiment: Antigen-specific proliferation of RsL.11 T cell clone with irradiated splenic APC; assay type: cell-based, rat
Protocol: FIG. 2. Structure-function analysis of the cytokine and NAg domains of IFNβ fusion proteins. (A) Expression supernatants containing designated IFNβ fusion proteins (see Table 2) were added to cultures of BN-GP T cells at designated titrations (x-axis). (B) The IFNβ-EK-NAg-6his or IFNβ-EK-6his fusion genes were inserted into the pCEP4 expression vector (Invitrogen). Inserts were verified by DNA sequencing, and the genes were expressed by transient transfection of HEK293 cells. Independently derived expression systems of IFNβ-EK-NAg-6his or IFNβ-EK-6his (3 each) were compared in the BN-GP T cell anti-proliferative assay. (C) Independently purified preparations (2 each) of each IFN-β fusion protein (IFNβ-NAg from HEK293 cells, IFNβ-NAg from baculovirus, and IFN-β from HEK293 cells) were added at designated concentrations to assess anti-proliferative activity. Two independently purified preparations of the same fusion protein were tested to verify the reliability of activity for each type of protein. The x-axis was based on the exponent of the molar concentration. For example, a concentration of 100 nM was represented as Log [10^−7]=Log10) (10^−7M)=−7 and was plotted by the exponent of −7. For these experiments (A-C), BN-GP T cells were cultured in IL-2. (D) The MBP-specific RsL.11 T cell clone and irradiated splenic APC were cultured with designated concentrations of purified IFNβ-NAg or GPMBP in the presence or absence of the OX6 anti-MHC-II mAb. (E) Five preparations of purified IFNβ-NAg and six preparations of purified IFN-β were tested for antigenic activity in cultures of RsL.11 T cells and irradiated splenic APC.
The RsL.11 MBP-specific clone was a stable, IL-2 dependent line derived from Lewis rats sensitized with rat MBP in CFA (Mannie, M. D., and M. S. Norris. 2001. MHC class-II-restricted antigen presentation by myelin basic protein-specific CD4+ T cells causes prolonged desensitization and outgrowth of CD4-responders. Cell Immunol 212:51-62). The RsL.11T clone was a transformed variant of the RsL.11 clone. […]

[2] = Table 6 Experiment 1, s.c. day 9 (1 nmole), day 10 (1 nmole), day 12 (0.5 nmole) after DHFR-NAg in CFA day 0
[3] = Table 6 Experiment 2, 1 nmole s.c. on days 9, 10, 12, and 14 after DHFR-NAg in CFA day 0
[4] = Table 6 Experiments 1 & 2 compiled, treatment from day 9 after onset
[5] = Table 7 Experiment 2, 1 nmole s.c. days 9, 10, 12, and 14, severe EAE = scores from 1.0 to 3.0
[6] = Table 7 Experiment 2, 1 nmole s.c. in saline days 9, 10, 12, and 14, IFNβ + NAg as mixture
[7] = Table 7 Experiment 3, 1 nmole s.c. days 9, 10, and 12, severe EAE = scores from 1.0 to 3.0
[8] = Table 7 Experiment 3, 1 nmole s.c. in saline days 9, 10, and 12, IFNβ + NAg as mixture
[9] = Table 7 Experiments 1-3 compiled, 1 nmole s.c. after onset
[10] = Table 7 Experiments 1-3 compiled, severe EAE = scores from 1.0 to 3.0
[11] = Table 7 Experiment 1, 1 nmole s.c. days 10, 11, and 13, severe EAE = scores from 1.0 to 3.0
[12] = Table 7 Experiment 1, 1 nmole s.c. in saline days 10, 11, and 13, IFNβ + NAg as mixture

B1: IFNβ: Rat interferon beta cytokine with enterokinase linker and 6-histidine sequence, no neuroantigen (protein)
chain: IDYKQLQFRQSTSIRTCQKLLRQLNGRLNLSYRTDFKIPMEVMHPSQMEKSYTAFAIQVMLQNVFLVFRSNFSSTGWNETIVESLLDELHQQTELLEIILKEKQEERLTWVTSTTTLGLKSYYWRVQRYLKDKKYNSYAWMVVRAEVFRNFSIILRLNRNFQNGDDDDKGHHHHHH
In the case of B1, the “% mean maximal weight loss” value (EAE in Lewis rats; [2]) is reported as 10.6 ± 5.3%, the “Incidence of severe EAE” value (EAE in Lewis rats; [2]) is reported as 5 of 6 and the “Mean # days with severe EAE” value (EAE in Lewis rats; [2]) is reported as 1.4 ± 1.1 days. It also gave a Mean cum. score (EAE in Lewis rats; [2]) of 11.1 ± 5.1, a Mean maximal score (EAE in Lewis rats; [2]) of 2.2 ± 0.8 and a Median cum. score (EAE in Lewis rats; [2]) of 10.3. For the same molecule, the Median maximal score (EAE in Lewis rats; [2]) was 2.0, the “% mean maximal weight loss” value (EAE in Lewis rats; [3]) was 20.7 ± 1.9% and the “Incidence of severe EAE” value (EAE in Lewis rats; [3]) was 3 of 5. For the same molecule, the “Mean # days with severe EAE” value (EAE in Lewis rats; [3]) was 1.3 ± 1.4 days, the Mean cum. score (EAE in Lewis rats; [3]) was 11.2 ± 5.9 and the Mean maximal score (EAE in Lewis rats; [3]) was 2.0 ± 1.0. For the same molecule, the Median cum. score (EAE in Lewis rats; [3]) was 8.3, the Median maximal score (EAE in Lewis rats; [3]) was 2.0 and the “% mean maximal weight loss” value (EAE in Lewis rats; [4]) was 15.2 ± 6.5%. The “Incidence of severe EAE” value (EAE in Lewis rats; [4]) was 8 of 11, the “Mean # days with severe EAE” value (EAE in Lewis rats; [4]) was 1.4 ± 1.2 days and the Mean cum. score (EAE in Lewis rats; [4]) was 11.1 ± 5.2. It also gave a Mean maximal score (EAE in Lewis rats; [4]) of 2.1 ± 0.8, a Median cum. score (EAE in Lewis rats; [4]) of 8.3 and a Median maximal score (EAE in Lewis rats; [4]) of 2.0. For the same molecule, the “Incidence of severe EAE” value (EAE in Lewis rats; [5]) was 6 of 6, the “Mean # days with severe EAE (A-P)” value (EAE in Lewis rats; [5]) was 1.9 ± 2.1 days and the Mean cum. score (EAE in Lewis rats; [6]) was 7.2 ± 3.8. The Mean maximal score (EAE in Lewis rats; [6]) was 2.2 ± 1.0, the Median cum. score (EAE in Lewis rats; [6]) was 5.9 and the Median maximal score (EAE in Lewis rats; [6]) was 2.5. For the same molecule, the “Incidence of severe EAE” value (EAE in Lewis rats; [7]) was 2 of 7, the “Mean # days with severe EAE (A-P)” value (EAE in Lewis rats; [7]) was 0.4 ± 0.6 days and the Mean cum. score (EAE in Lewis rats; [8]) was 3.1 ± 2.2. It also gave a Mean maximal score (EAE in Lewis rats; [8]) of 1.0 ± 1.1, a Median cum. score (EAE in Lewis rats; [8]) of 2.5 and a Median maximal score (EAE in Lewis rats; [8]) of 0.5. The Mean cum. score (EAE in Lewis rats; [9]) was 5.0 ± 3.6, the Mean maximal score (EAE in Lewis rats; [9]) was 1.5 ± 1.2 and the Median cum. score (EAE in Lewis rats; [9]) was 4.0. The Median maximal score (EAE in Lewis rats; [9]) was 1.0, the “Incidence of severe EAE” value (EAE in Lewis rats; [10]) was 8 of 13 and the “Mean # days with severe EAE (A-P)” value (EAE in Lewis rats; [10]) was 1.1 ± 1.7 days. For the same molecule, the “course of EAE during treatment” value (EAE in Lewis rats; treatment after onset, disease rebound after cessation on day 12 or day 14) was “initial suppression of EAE” and the “stimulatory activity (antigen-specific proliferation)” value ([1]; independently purified preparations, RsL.11 T cells and irradiated splenic APC) was “devoid of stimulatory activity”.

B2: IFNβ-NAg: Fusion protein: rat IFNβ, enterokinase linker (GDDDDKG), encephalitogenic 73-87 peptide of guinea pig MBP, C-terminal 6-histidine tag (protein)
chain: IDYKQLQFRQSTSIRTCQKLLRQLNGRLNLSYRTDFKIPMEVMHPSQMEKSYTAFAIQVMLQNVFLVFRSNFSSTGWNETIVESLLDELHQQTELLEIILKEKQEERLTWVTSTTTLGLKSYYWRVQRYLKDKKYNSYAWMVVRAEVFRNFSIILRLNRNFQNGDDDDKGPQKSQRSQDENPVVHHHHHH
For B2, the “% mean maximal weight loss” value (EAE in Lewis rats; [2]) was 3.8 ± 2.0%, the “Incidence of severe EAE” value (EAE in Lewis rats; [2]) was 1 of 6 and the “Mean # days with severe EAE” value (EAE in Lewis rats; [2]) was 0.1 ± 0.2 days. For the same molecule, the Mean cum. score (EAE in Lewis rats; [2]) was 3.4 ± 2.1, the Mean maximal score (EAE in Lewis rats; [2]) was 0.7 ± 0.6 and the Median cum. score (EAE in Lewis rats; [2]) was 3.5. For the same molecule, the Median maximal score (EAE in Lewis rats; [2]) was 0.5, the “% mean maximal weight loss” value (EAE in Lewis rats; [3]) was 6.4 ± 5.0% and the “Incidence of severe EAE” value (EAE in Lewis rats; [3]) was 1 of 5. The “Mean # days with severe EAE” value (EAE in Lewis rats; [3]) was 0.1 ± 0.2 days, the Mean cum. score (EAE in Lewis rats; [3]) was 2.7 ± 1.5 and the Mean maximal score (EAE in Lewis rats; [3]) was 0.7 ± 0.8. The Median cum. score (EAE in Lewis rats; [3]) was 2.3, the Median maximal score (EAE in Lewis rats; [3]) was 0.3 and the “% mean maximal weight loss” value (EAE in Lewis rats; [4]) was 5.0 ± 3.7%. For the same molecule, the “Incidence of severe EAE” value (EAE in Lewis rats; [4]) was 2 of 11, the “Mean # days with severe EAE” value (EAE in Lewis rats; [4]) was 0.1 ± 0.2 days and the Mean cum. score (EAE in Lewis rats; [4]) was 3.1 ± 1.8. It also gave a Mean maximal score (EAE in Lewis rats; [4]) of 0.7 ± 0.7, a Median cum. score (EAE in Lewis rats; [4]) of 2.8 and a Median maximal score (EAE in Lewis rats; [4]) of 0.5. The “Incidence of severe EAE” value (EAE in Lewis rats; [11]) was 0 of 5, the “Mean # days with severe EAE (A-P)” value (EAE in Lewis rats; [11]) was 0.3 ± 0.7 days and the Mean cum. score (EAE in Lewis rats; [12]) was 1.7 ± 0.9. The Mean maximal score (EAE in Lewis rats; [12]) was 0.4 ± 0.1, the Median cum. score (EAE in Lewis rats; [12]) was 1.8 and the Median maximal score (EAE in Lewis rats; [12]) was 0.3. The “Incidence of severe EAE” value (EAE in Lewis rats; [5]) was 1 of 6, the “Mean # days with severe EAE (A-P)” value (EAE in Lewis rats; [5]) was 0.1 ± 0.2 days and the Mean cum. score (EAE in Lewis rats; [6]) was 1.0 ± 0.7. The Mean maximal score (EAE in Lewis rats; [6]) was 0.6 ± 0.7, the Median cum. score (EAE in Lewis rats; [6]) was 0.8 and the Median maximal score (EAE in Lewis rats; [6]) was 0.4. For the same molecule, the “Incidence of severe EAE” value (EAE in Lewis rats; [7]) was 0 of 7, the “Mean # days with severe EAE (A-P)” value (EAE in Lewis rats; [7]) was 0.0 ± 0.0 days and the Mean cum. score (EAE in Lewis rats; [8]) was 1.7 ± 0.6. For the same molecule, the Mean maximal score (EAE in Lewis rats; [8]) was 0.4 ± 0.1, the Median cum. score (EAE in Lewis rats; [8]) was 1.8 and the Median maximal score (EAE in Lewis rats; [8]) was 0.3. It also gave a Mean cum. score (EAE in Lewis rats; [9]) of 1.4 ± 0.8, a Mean maximal score (EAE in Lewis rats; [9]) of 0.4 ± 0.4 and a Median cum. score (EAE in Lewis rats; [9]) of 1.4. The Median maximal score (EAE in Lewis rats; [9]) was 0.3, the “Incidence of severe EAE” value (EAE in Lewis rats; [10]) was 1 of 18 and the “Mean # days with severe EAE (A-P)” value (EAE in Lewis rats; [10]) was 0.1 ± 0.4 days. The “EAE-associated weight loss, mean” value (EAE in Lewis rats; experiment 1 of Table 7) was 9.7%, the “EAE-associated weight loss, mean” value (EAE in Lewis rats; experiment 2 of Table 7) was 8.7% and the “EAE-associated weight loss, mean” value (EAE in Lewis rats; experiment 3 of Table 7) was 8.5%. The “antigenic potency relative to GPMBP” value ([1]; at low concentrations, concentration eliciting half-maximal response) was “more potent than intact guinea pig myelin basic protein” and the peak proliferative response ([1]; compared with GPMBP) was “substantially less than that stimulated by GPMBP”.
